What was measured:
MS2 coat protein [1] = experiment: apparent KD of MS2 coat protein, switch OFF state (with FMN for OFF switches, without FMN for ON switches); designed switch direction (-1 OFF switch, 1 ON switch): 1; higher = weaker reporter binding; details: FMN input: 0 or 200 uM; Eterna round: R93 (includes R88 designs)
Method in brief: (§1)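 Designed RNA switches, transcribed on-chip from Illumina sequencing clusters, were titrated with SNAP-549-labelled MS2 coat protein from 0.7 or 1.5 nM to 3 µM in twofold steps. The solution was 100 mM Tris-HCl pH 7.5, 80 mM KCl, 4 mM MgCl2, with constant ligand or without it. Apparent KD is the median over each design's normalised cluster binding-curve fits.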

MS2 coat protein [2] = experiment: apparent KD of MS2 coat protein, switch ON state; designed switch direction (-1 OFF switch, 1 ON switch): 1; higher = weaker reporter binding; details: FMN input: 0 or 200 uM; Eterna round: R93 (includes R88 designs)
Method in brief: as §1

ACCCGACAUGAGGAUCACCCAUGUAAACAAUCAUGAGGAUAUCCGGAGCAAAUGCUCAAGGGAGAAGGCAUAAAAG [Onrequus]
apparent KD of MS2 coat protein (MS2 coat protein [1]): 132 nM
apparent KD of MS2 coat protein (MS2 coat protein [2]): 29.5 nM

ACUACACAUGAGGAUCACCCAUGUCAGGUCGGACUAGGAUAUUAUAAACCAGAGUAAAAAUAAGAAGGAGUAGAAA [JR_SS001_Sub309]
apparent KD of MS2 coat protein (MS2 coat protein [1]): 29.9 nM
apparent KD of MS2 coat protein (MS2 coat protein [2]): 37.9 nM

ACUAUACAUGAGGAUCACCCAUGUCAGGUGGGACUAGGAUAUCAAAAGCCAGAGUAAGAAUGAGAAGGAGUAGAAA [JR_SS001_Sub304]
apparent KD of MS2 coat protein (MS2 coat protein [1]): 69.3 nM
apparent KD of MS2 coat protein (MS2 coat protein [2]): 66.4 nM

AGAAAACAUGAGGAUCACCCAUGUAGGAAUAUGGGAGGAUAUACAGAGACGAAAGUCAGAGUAGAAGGCCUAAGAA [salish99-SS1-088]
apparent KD of MS2 coat protein (MS2 coat protein [1]): 96.7 nM
apparent KD of MS2 coat protein (MS2 coat protein [2]): 24 nM

AGAAAACAUGAGGAUCACCCAUGUGAUAACAUGGGAGGAUAUACGAGGACGAGAGUCAAGGUAGAAGGCCUAAAGA [Garnet 72]
apparent KD of MS2 coat protein (MS2 coat protein [1]): 114 nM
apparent KD of MS2 coat protein (MS2 coat protein [2]): 111 nM

AGAAAUAAAAGAGAGGAUAUCCAAAAGGGAACAUGAGGAUCACCCAUGUAAAUGAAAAUAAAAUGGGAGAAGGCUCAAAAUAAAG [80% More Helter Skelter 2]
apparent KD of MS2 coat protein (MS2 coat protein [1]): 85 nM
apparent KD of MS2 coat protein (MS2 coat protein [2]): 54.6 nM

AGAAGGUGGGUCGAGGAUAUCAGGCACGCCACAUGAGGAUCACCCAUGUUUUUGGCACCGCCCAAUGAGAAGGUGAACACCUUCA [Cesobe]
apparent KD of MS2 coat protein (MS2 coat protein [1]): 12.4 nM
apparent KD of MS2 coat protein (MS2 coat protein [2]): 9.34 nM

AGAAUAAAAAGACAGGAUAUCCAAAAUAAAACAUGAGGAUCACCCAUGUAAAAAAAAUAAAAAUGGGAGAAGGGUCAAAAUAAGA [Mat - Same State 2 - JL mod - D63]
apparent KD of MS2 coat protein (MS2 coat protein [1]): 31.9 nM
apparent KD of MS2 coat protein (MS2 coat protein [2]): 18.8 nM

AGAGAUAACAGAGAGGAUAUCCAAUAGAAAACAUGAGGAUCACCCAUGUGAAAGAUAAUAAAAUGGGAGAAGGCUCACAAUAAGA [Topaz 42]
apparent KD of MS2 coat protein (MS2 coat protein [1]): 39.8 nM
apparent KD of MS2 coat protein (MS2 coat protein [2]): 15.8 nM

AGCCAACAUGAGGAUCACCCAUGUCAAACAAGUCAAGGAUAUGGGCCUCUAAAAGGAGUACCAGAAGGUGAGAAAU [Vequatge]
apparent KD of MS2 coat protein (MS2 coat protein [1]): 52.6 nM
apparent KD of MS2 coat protein (MS2 coat protein [2]): 123 nM

AGCUAACAUGAGGAUCACCCAUGUCCGCUAAACCAAGGAUAUGGGACGAAUAAAAUCGGACCAGAAGGUGGCCGAC [Qureaed]
apparent KD of MS2 coat protein (MS2 coat protein [1]): 222 nM
apparent KD of MS2 coat protein (MS2 coat protein [2]): 218 nM

AGGAAACAUGAGGAUCACCCAUGUAAAAAUAUGGGAGGAUAUACAAAGACGAAAGUGAGAGUAGAAGGCCUAAAAG [Garnet 18]
apparent KD of MS2 coat protein (MS2 coat protein [1]): 124 nM
apparent KD of MS2 coat protein (MS2 coat protein [2]): 35.6 nM

AGGAAACAUGAGGAUCACCCAUGUAAAGAAGGGUGAGGAUAUACAAAGAAAAGAAAGAAAGUAGAAGGCACAAAAG [Mongoose]
apparent KD of MS2 coat protein (MS2 coat protein [1]): 113 nM
apparent KD of MS2 coat protein (MS2 coat protein [2]): 233 nM

AGGAAGGAGAGAGAGGAUAUCCAAAGGAAAACAUGAGGAUCACCCAUGUAGAAGGUAGGAAAUUGGGAGAAGGCUCAAGAGACAG [salish99-ss2-126]
apparent KD of MS2 coat protein (MS2 coat protein [1]): 49.5 nM
apparent KD of MS2 coat protein (MS2 coat protein [2]): 16.8 nM

AGGAGACAUGAGGAUCACCCAUGUGAGAAGAGGCGAGGAUAUCGAAAGAAAGAAGAGAAACGAGAAGGCGCGAGCC [salish99-SS1-032]
apparent KD of MS2 coat protein (MS2 coat protein [1]): 28.8 nM
apparent KD of MS2 coat protein (MS2 coat protein [2]): 28.1 nM

AGUCAACAUGAGGAUCACCCAUGUCUGAGAGCAUGAGGAUAUCUAGAUGGGCAGCAUGAUAGAGAAGGCAUGCGCC [Biongear]
apparent KD of MS2 coat protein (MS2 coat protein [1]): 116 nM
apparent KD of MS2 coat protein (MS2 coat protein [2]): 173 nM

AUAAAACAUGAGGAUCACCCAUGUAGAAAUAUGGGAGGAUAUACAAAGACGAAAGUCAAGGUAGAAGGCCUAAAAG [Mat - Same State 1 - Meechl mod - D118]
apparent KD of MS2 coat protein (MS2 coat protein [1]): 47.4 nM
apparent KD of MS2 coat protein (MS2 coat protein [2]): 39.1 nM

AUAAAACAUGAGGAUCACCCAUGUAGAAAUAUGGGAGGAUAUACUAGAUCGAAAGAUCUAGUAGAAGGCCUAAAAG [JL Mod of Eli 1]
apparent KD of MS2 coat protein (MS2 coat protein [1]): 60.7 nM
apparent KD of MS2 coat protein (MS2 coat protein [2]): 27.6 nM

AUAAAACAUGAGGAUCACCCAUGUCAACAAAGUCGAGGAUAUGGGCAAAUAAAAUAAGAACCAGAAGGCGAAUAAU [Teenbexe]
apparent KD of MS2 coat protein (MS2 coat protein [1]): 593 nM
apparent KD of MS2 coat protein (MS2 coat protein [2]): 32.2 nM

AUAAAAUAAAGGGAGGAUAUCUAUAAUAAAACAUGAGGAUCACCCAUGUUAAAAAGAAGAUCAUGGGAGAAGGCCUAAAAUAAAU [SS2 M 30]
apparent KD of MS2 coat protein (MS2 coat protein [1]): 46.1 nM
apparent KD of MS2 coat protein (MS2 coat protein [2]): 37.9 nM
